# Reference: article PMC2826812 (Biochemistry, 2010)
# How the values were obtained:
# [1] = biological target: acto-Myo1c^1IQ (pyr.actin-Myo1c^1IQ) (Rattus norvegicus, UniProt Q63355); assay type: binding
# [2] = biological target: rabbit skeletal muscle F-actin (rabbit) (UniProt P68135)
# [3] = biological target: rabbit skeletal muscle F-actin (rabbit) (UniProt P68135); remark: listed apart in the source
compound,measurement,setting,value
Nc1ncnc2c1ncn2[C@@H]1O[C@H](COP(=O)(O)OP(=O)(O)O)[C@@H](O)[C@H]1O [ADP],Kd,[1],1740 nM
Myo1c^SAH-G (from UniProt Q63355 1-762; D3ZJP6 805-843) (domain or fragment),in vitro motility: speed of actin filaments over surface-held myosin,[2],29 nm/s
Myo1c^1IQ-G (from UniProt Q63355 1-725) (domain or fragment),"Km for actin of the steady-state actin-activated Mg2+-ATPase, pCa 4.6",[3],0.28 μM
